In paper PMC5703999, “The E. coli dicarboxylic acid transporters DauA act as a signal transducer by interacting with the DctA uptake system” (Scientific Reports, 2017):

T1: DauA fused to the T18 or T25 domain of adenylate cyclase (E. coli, UniProt P0AFR2 1-559)
T1 construct: C4-dicarboxylic acid transporter DauA (previously YchM), E. coli; Stood with T18 and with T25 in reciprocal pairings; one molecule for both; also called DauA-T18; DauA-T25; source: bacterial two-hybrid fusion (pUT18 or pKNT25), in E. coli BTH101 (cyaA-); not shown: T18 or T25 domain of Bordetella pertussis adenylate cyclase CyaA, C-terminal, kept
T1 sequence (looked up): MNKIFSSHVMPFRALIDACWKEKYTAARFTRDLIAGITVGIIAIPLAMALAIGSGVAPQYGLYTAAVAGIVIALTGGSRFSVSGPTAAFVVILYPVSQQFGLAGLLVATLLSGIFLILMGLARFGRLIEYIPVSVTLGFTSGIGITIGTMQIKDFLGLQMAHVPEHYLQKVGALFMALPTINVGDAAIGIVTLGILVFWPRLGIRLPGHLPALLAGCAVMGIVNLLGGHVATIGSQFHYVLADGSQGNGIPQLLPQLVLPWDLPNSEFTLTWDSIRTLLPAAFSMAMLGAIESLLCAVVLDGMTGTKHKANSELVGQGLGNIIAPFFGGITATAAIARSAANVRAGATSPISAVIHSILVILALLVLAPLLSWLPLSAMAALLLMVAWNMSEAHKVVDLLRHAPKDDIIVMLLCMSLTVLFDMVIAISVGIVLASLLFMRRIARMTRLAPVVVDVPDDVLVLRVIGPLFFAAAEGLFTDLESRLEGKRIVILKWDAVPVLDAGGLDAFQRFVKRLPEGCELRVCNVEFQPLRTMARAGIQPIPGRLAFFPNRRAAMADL

T2: DctA fused to the T18 or T25 domain of adenylate cyclase (E. coli, UniProt P0A830 1-428)
T2 construct: Aerobic C4-dicarboxylate transport protein DctA, E. coli; also called DctA-T25; DctA-T18; source: bacterial two-hybrid fusion (pUT18 or pKNT25), in E. coli BTH101 (cyaA-); not shown: T18 or T25 domain of Bordetella pertussis adenylate cyclase CyaA, C-terminal, kept
T2 sequence (looked up): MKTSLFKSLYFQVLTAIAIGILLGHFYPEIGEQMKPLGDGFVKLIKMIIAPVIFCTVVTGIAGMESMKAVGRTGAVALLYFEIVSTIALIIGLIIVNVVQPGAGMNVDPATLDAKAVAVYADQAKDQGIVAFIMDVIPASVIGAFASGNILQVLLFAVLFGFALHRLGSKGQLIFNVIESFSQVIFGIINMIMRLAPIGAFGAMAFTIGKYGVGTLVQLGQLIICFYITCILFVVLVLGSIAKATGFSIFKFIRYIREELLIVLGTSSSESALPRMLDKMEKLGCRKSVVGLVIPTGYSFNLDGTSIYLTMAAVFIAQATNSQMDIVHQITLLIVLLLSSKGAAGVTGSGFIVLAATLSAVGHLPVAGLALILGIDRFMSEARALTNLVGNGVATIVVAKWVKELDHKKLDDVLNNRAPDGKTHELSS

B1: AmtB (ammonium transporter), two-hybrid fusion (natural protein, UniProt P69681 1-428, looked up)
chain: MKIATIKTGLASLAMLPGLVMAAPAVADKADNAFMMICTALVLFMTIPGIALFYGGLIRGKNVLSMLTQVTVTFALVCILWVVYGYSLAFGEGNNFFGNINWLMLKNIELTAVMGSIYQYIHVAFQGSFACITVGLIVGALAERIRFSAVLIFVVVWLTLSYIPIAHMVWGGGLLASHGALDFAGGTVVHINAAIAGLVGAYLIGKRVGFGKEAFKPHNLPMVFTGTAILYIGWFGFNAGSAGTANEIAALAFVNTVVATAAAILGWIFGEWALRGKPSLLGACSGAIAGLVGVTPACGYIGVGGALIIGVVAGLAGLWGVTMLKRLLRVDDPCDVFGVHGVCGIVGCIMTGIFAASSLGGVGFAEGVTMGHQLLVQLESIAITIVWSGVVAFIGYKLADLTVGLRVPEEQEREGLDVNSHGENAYNA
notes: Ammonium transporter AmtB; source: bacterial two-hybrid fusion, in E. coli BTH101 (cyaA-)
B2: DcuS fused to the T18 or T25 domain of adenylate cyclase (natural protein, E. coli, UniProt P0AEC8 1-543, looked up)
chain: MRHSLPYRMLRKRPMKLSTTVILMVSAVLFSVLLVVHLIYFSQISDMTRDGLANKALAVARTLADSPEIRQGLQKKPQESGIQAIAEAVRKRNDLLFIVVTDMQSLRYSHPEAQRIGQPFKGDDILKALNGEENVAINRGFLAQALRVFTPIYDENHKQIGVVAIGLELSRVTQQINDSRWSIIWSVLFGMLVGLIGTCILVKVLKKILFGLEPYEISTLFEQRQAMLQSIKEGVVAVDDRGEVTLINDAAQELLNYRKSQDDEKLSTLSHSWSQVVDVSEVLRDGTPRRDEEITIKDRLLLINTVPVRSNGVIIGAISTFRDKTEVRKLMQRLDGLVNYADALRERSHEFMNKLHVILGLLHLKSYKQLEDYILKTANNYQEEIGSLLGKIKSPVIAGFLISKINRATDLGHTLILNSESQLPDSGSEDQVATLITTLGNLIENALEALGPEPGGEISVTLHYRHGWLHCEVNDDGPGIAPDKIDHIFDKGVSTKGSERGVGLALVKQQVENLGGSIAVESEPGIFTQFFVQIPWDGERSNR
notes: Membrane embedded sensor histidine kinase DcuS, E. coli; also called DcuS-T18; DcuS-T25; source: bacterial two-hybrid fusion (pUT18 or pKNT25), in E. coli BTH101 (cyaA-); not shown: T18 or T25 domain of Bordetella pertussis adenylate cyclase CyaA, C-terminal, kept

Columns and labels:
[1] = molecular target: T1, DauA fused to the T18 or T25 domain of …; assay: two-hybrid; bacterial two-hybrid (BTH): T18 and T25 fusions co-transformed in E. coli BTH101 (cyaA-), grown overnight in LB at 30 °C; beta-galactosidase activity; background below 150 Miller units; the reporter strain expresses chromosomal DctA and DcuS; conditions: partners not purified
[2] = molecular target: T2, DctA fused to the T18 or T25 domain of …; assay: as above; conditions: partners not purified

Row | Binder | beta-galactosidase activity [1] [Miller units] | beta-galactosidase activity [2] [Miller units]
1 | B1 | < 150 | –
2 | B2 | – | 252
